Paper PMC3673817

Molecular target: FLAG-tagged full length EEA1 (Early endosomal autoantigen 1) (human) (UniProt Q15075)
Test: SPR; EEA1-FLAG amine-coupled to a CM5 chip (~2,000 RU), Biacore 2000, 25°C; E2 injected at 2.5 to 160 μM, 20 μL/min, in 10 mM Hepes pH 7.4, 150 mM NaCl, 3 mM EDTA, 0.005% surfactant P20; response plotted against the E2 concentration

UniProt Q15075, sequence (Q15075 whole entry): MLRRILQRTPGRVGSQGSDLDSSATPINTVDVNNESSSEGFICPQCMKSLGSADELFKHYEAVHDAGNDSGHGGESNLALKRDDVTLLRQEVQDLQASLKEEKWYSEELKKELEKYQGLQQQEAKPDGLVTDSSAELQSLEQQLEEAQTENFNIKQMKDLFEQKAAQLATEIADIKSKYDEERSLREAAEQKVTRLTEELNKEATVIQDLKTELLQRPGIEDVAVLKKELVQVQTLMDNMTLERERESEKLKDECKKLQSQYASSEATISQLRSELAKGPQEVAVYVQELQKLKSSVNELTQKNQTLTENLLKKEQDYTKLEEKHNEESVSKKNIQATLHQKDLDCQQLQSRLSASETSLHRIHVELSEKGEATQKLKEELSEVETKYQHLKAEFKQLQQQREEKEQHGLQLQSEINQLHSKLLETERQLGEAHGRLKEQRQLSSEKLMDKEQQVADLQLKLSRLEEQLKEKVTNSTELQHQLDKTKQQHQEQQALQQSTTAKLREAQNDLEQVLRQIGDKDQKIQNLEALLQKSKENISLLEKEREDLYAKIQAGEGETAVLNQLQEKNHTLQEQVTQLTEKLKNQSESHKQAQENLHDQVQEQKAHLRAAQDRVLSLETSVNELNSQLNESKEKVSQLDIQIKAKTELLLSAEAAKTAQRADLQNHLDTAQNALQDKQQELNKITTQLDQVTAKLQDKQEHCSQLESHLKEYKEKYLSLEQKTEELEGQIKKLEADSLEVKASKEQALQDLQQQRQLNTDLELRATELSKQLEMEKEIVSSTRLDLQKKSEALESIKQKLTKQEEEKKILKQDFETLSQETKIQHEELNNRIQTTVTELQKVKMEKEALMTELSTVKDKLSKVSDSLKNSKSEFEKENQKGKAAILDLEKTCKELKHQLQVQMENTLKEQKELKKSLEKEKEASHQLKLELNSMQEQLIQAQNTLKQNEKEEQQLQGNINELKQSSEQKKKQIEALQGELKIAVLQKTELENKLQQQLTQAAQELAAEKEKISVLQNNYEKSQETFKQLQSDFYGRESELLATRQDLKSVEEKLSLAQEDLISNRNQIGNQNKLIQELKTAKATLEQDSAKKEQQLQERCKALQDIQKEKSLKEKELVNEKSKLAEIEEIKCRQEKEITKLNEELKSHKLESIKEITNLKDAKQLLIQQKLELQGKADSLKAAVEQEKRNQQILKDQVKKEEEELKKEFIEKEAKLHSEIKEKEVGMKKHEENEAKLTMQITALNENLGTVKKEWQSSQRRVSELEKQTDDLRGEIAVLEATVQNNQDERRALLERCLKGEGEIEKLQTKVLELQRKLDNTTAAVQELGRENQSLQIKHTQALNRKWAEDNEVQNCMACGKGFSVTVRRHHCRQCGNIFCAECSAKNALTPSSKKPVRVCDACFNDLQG

Kd: 9.7 µM
Substance: Ube2A (HR6a) (from UniProt P49459 1-152) (enzyme; other documents disagree on this pair)
